Consider eleven molecules from patent US20190241662A1 (ADAGENE, published 2019).

Residue numbers refer to the chain shown, from its start. Where two headings read alike, the source gives them in different places.

In experiment [1] the target is T1, full-length human CTLA4 expressed on cells (human, UniProt P16410 36-223).
T1 construct: whole, on cells; also called HEK293F/hCTLA-4 cells; HEK293F/hCTLA4 cells
T1 sequence (looked up): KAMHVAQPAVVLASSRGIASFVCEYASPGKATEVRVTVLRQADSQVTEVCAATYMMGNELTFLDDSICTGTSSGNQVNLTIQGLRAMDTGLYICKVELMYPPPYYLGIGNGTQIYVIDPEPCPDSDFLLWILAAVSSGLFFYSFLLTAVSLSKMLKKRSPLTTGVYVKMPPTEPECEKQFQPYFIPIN
Description: flow cytometry, transfected HEK293F cells, antibody concentration not printed [Cont.]. Here is the method: (§1) The affinities of the antibodies were also assessed against human and mouse CTLA4 transiently expressed on the surface of HEK293F cells (FIG. 2). Briefly, HEK293F cells were transfected with a plasmid expressing full-length human, monkey or mouse CTLA4 from a bicistronic IRES vector also encoding EGFP, and EGFP expression was used to identify the transfected cells. After 48 hours, the mammalian cell suspension (2×10⁵/well) was transferred to an Eppendorf tube, centrifuged, the supernatant was discarded, the cells were resuspended with 1 mL PBSA (to a density is 4×10⁶ cells/mL), and added to a 96 well plate. […] The cells were then washed once prior to analysis by flow cytometry (Beckman® CytoFlex).
On the technique in general: In flow cytometry, cells or beads pass a laser one at a time.

Experiment [2] has as its target T2, full-length mouse CTLA4 expressed on HEK293F cells (mouse, UniProt P09793 36-223).
T2 construct: whole, on cells
The experiment is described as above. Here is the method:
as §1

Experiment [3] addresses T3, recombinant human CTLA4 fused with human Fc and His tag (human, UniProt P16410 36-162, limits assumed).
T3 construct: Coated in the CD80 ELISA, biotinylated and in solution in the CD86 ELISA; also called biotinylated human CTLA4 fused with human FC and His tag
T3 sequence (looked up): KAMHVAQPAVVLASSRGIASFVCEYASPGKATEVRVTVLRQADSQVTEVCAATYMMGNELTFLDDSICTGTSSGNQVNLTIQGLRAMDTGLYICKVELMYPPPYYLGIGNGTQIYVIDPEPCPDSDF
Description: competition ELISA: plate-bound human CTLA4-Fc-His, biotinylated CD80 as blocked ligand. Here is the method: Antibodies were then tested for their ability to block binding of CTLA4 to its cognate ligands CD80 and CD86 by ELISA. […] Plates were blocked with PBS supplemented with 2% (w/v) skim milk at 37° C. for 1 hour. […] Plates were washed four times, and 100 μL HRP-neutravidin (1:1000) was added to each well and incubated at 37° C. for 1 hour. Plates were washed as previously described, and 50 μL TMB substrate solution was added and incubated at room temperature for 5 minutes before the reaction was stopped by 50 μL sulfate acid (2M).
On the technique in general: An ELISA detects its analyte on a solid surface through an enzyme-linked reagent.

Experiment [4] addresses T1, full-length human CTLA4 expressed on …. The experiment can be described thus: flow cytometry blocking: HEK293F cells with human CTLA4, 100 nM antibody, then 100 nM CD80-Fc-Bio (blocked ligand); PBSA panel: Mean 157692, 26.3%. Here is the method:
Antibodies were also tested for their ability to block binding of CTLA4 to its cognate ligands CD80 and CD86 by flow cytometry. The plasmid encoding full-length human CTLA4 was transiently expressed in HEK293F cells. Cells were washed with staining buffer (PBSA buffer including 1.76 mM KH₂PO₄, 10.14 mM Na₂HPO₄.12H₂O, 2.68 mM KCl, 136.89 mM NaCl and 1% BSA), and resuspended in staining buffer containing 100 nM test antibodies. […] Cells were washed once, and analyzed by CytoFlex flow cytometry.

For experiment [5], the target named is T4, recombinant human CTLA4-Fc (human, UniProt P16410 36-162).
T4 construct: also called human CTLA4 fused with human FC fragment; CTLA4-Fc (Sino Biological, 11159-H03H)
T4 sequence (looked up): T3 sequence (looked up)
Description: BLI Octet, CTLA4-Fc on AHC sensor, Fab 10 ug/mL. Here is the method: Proprietary phagemid libraries (see PCT application number PCT/CN2017/098333, incorporated herein by reference in its entirety; see also PCT application number PCT/CN2017/098299, incorporated herein by reference in its entirety) were employed to pan against human CTLA4 antigens. A total of 3-5 rounds of panning were conducted. After the final round of panning, single-colony supernatant ELISA was performed to identify the primary hits that specifically recognized human CTLA4 (see e.g., UniProt Accession Number P16410). The primary hits were defined as those whose ELISA signals were at least twice that of background. The hits were then sequenced, and the unique clones were expressed in E. coli and purified. Their affinities against human CTLA4 were measured by ForteBio Octet RED96 Systems. […] The acquired ForteBio data were processed with Data Acquisition software 7.1, and kinetic data were fitted to a 1:1 Langmuir binding model.
For orientation: In BLI a coated tip is dipped into the sample, and binding shifts an interference pattern.

For experiment [6], the target named is T5, recombinant human CTLA4 protein (construct not stated) (human, UniProt P16410 36-162, limits assumed).
T5 construct: also called biotinylated human CTLA4; human recombinant CTLA4 proteins
T5 sequence (looked up): T3 sequence (looked up)
The experiment can be described thus: SPR (Biacore T200), IgG captured by anti-human Fc. From the text: (§2) Binding affinity and kinetics of antibodies against human, monkey and mouse CTLA4 were examined (Table 4) by surface plasmon resonance (SPR) analysis using a Biacore™ T200 instrument (Biacore AB, Uppsala, Sweden) according to the manufacturer's guidelines. Anti-Human IgG (Fc) antibody from Human Antibody Capture Kit (GE BR-1008-39) was immobilized on CM5 chips by coupling of its amine groups onto carboxylated surfaces of sensor chips according to the instructions of an Amine Coupling kit (GE Biacore #BR-1000-50). […] The association and dissociation curves were fitted to a 1:1 Langmuir binding model using Biacore T200 Evaluation Software (Biacore AB) according to the manufacturer's guidelines.

For experiment [7], the target named is T6, monkey CTLA4 (SPR analyte, construct not stated) (monkey, UniProt G7PL88 36-161).
T6 sequence: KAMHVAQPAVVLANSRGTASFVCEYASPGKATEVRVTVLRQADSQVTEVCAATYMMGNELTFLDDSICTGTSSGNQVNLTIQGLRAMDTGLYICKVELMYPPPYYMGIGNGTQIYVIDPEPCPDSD
Description: SPR (Biacore T200), IgG captured by anti-human Fc.
Text: as §2

Experiment [8] concerns the target mouse CTLA4 (SPR analyte, construct not stated) (mouse, UniProt P09793 36-162, limits assumed). The experiment can be described thus: SPR (Biacore T200), IgG captured by anti-human Fc.
Text: as §2

The target in experiment [9] is T4, recombinant human CTLA4-Fc. The experiment can be described thus: ELISA; EC50 divided by the EC50 of TY21580. On the procedure: (§3) Plates were blocked with PBS supplemented with 3% non-fat milk at 37° C. for 1 hour. After washing, 100 μL of 3-fold serial dilutions of antibodies were added to each well. After incubation at 37° C. for 1 hour, plates were washed four times, and 100 μL HRP conjugated anti-human IgG (Fab specific) (1:6000 dilution) was added to each well. Plates were incubated at 37° C. for 1 hour, washed four times, and then 50 μL TMB substrate solution was added to each well, and the plate was incubated at room temperature. […] The EC₅₀ was evaluated by fitting the ELISA data using the asymmetrical sigmoidal (five-parameter logistic equation) model of GraphPad Prism 6 software.

In experiment [10] the target is T4, recombinant human CTLA4-Fc. Description: ELISA, coated human CTLA4-Fc (as in Example 8). Here is the method: as §3
In experiment [11] the target is T4, recombinant human CTLA4-Fc. The experiment can be described thus: ELISA, coated human CTLA4-Fc (as in Example 8). Here is the method: as §3
This is another data set of the same source.

In general, Kd refers to a measure of binding affinity in units of concentration. As a reminder, the EC50 is the concentration giving half of the maximal effect. The koff is the first-order rate constant of dissociation. A word on the kon: it is a measure of how fast the partners come together.

B1: TY21588 (antibody, V domains shown)
VH: EVQLVESGGGLVQPGGSLRLSCAASGYSISSGYHWDWIRQAPGKGLEWVSGISGYGGSTYYADSVKGRFTISRDNSKNTLYLQLNSLRAEDTAVYYCARHSYYGSGNFDYWGQGTLVTVSS
VL: DIQLTQSPSSLSASVGDRVTITCRASESVDFFGKSFLHWYQQKPGKAPKLLIYDASNLETGVPSRFSGSGSGTDFTLTISSLQPEDFATYYCQQSYSWPPTFGQGTKVEIKR
notes: human IgG1 (hIgG1) from Fab hit B15732
B1: the “% of cells in upper right quadrant (Q2)” value in experiment [1] is 27%. Moreover, the “% of cells in upper right quadrant (Q2)” value in experiment [2] was 32.1%. The “IC50 (read off the curve)” value in experiment [3] is around 1 nM. Besides, in [4], the “% of cells in upper right quadrant (CD80-positive) in the presence of the antibody” value was determined as 19.4% and the “Mean of the CD80 binding signal in the presence of the antibody” value was 8180.

B2: B15717 (Fab, V domains shown)
VH: EVQLVESGGGLVQPGGSLRLSCAASGYTFSGYGIHWVRQAPGKGLEWIGEIYHSGSTYYSPSLKSRVTISRDNSKNTLYLQLNSLRAEDTAVYYCARRIDAFDIWGQGTLVTVSS
VL: B1 VL with E27Q, F32D, K34F, N57S, T60S, S95R, Y96D, P100Y
notes: Fab from E. coli; also called Fab hit of TY21689
Regarding B2, in [5], the Kd was 105 nM.

B3: TY21692 (antibody, V domains shown)
VH: EVQLVESGGGLVQPGGSLRLSCAASGYSITSGHYWSWIRQAPGKGLEWIGDISHSGSTYYSQSLKSRVTISRDNSKNTLYLQLNSLRAEDTAVYYCARGSRTGYFDYWGQGTLVTVSS
VL: DIQLTQSPSSLSASVGDRVTITCRASQSISSYLNWYQQKPGKAPKLLIYDASNLETGVPSRFSGSGSGTDFTLTISSLQPEDFATYYCQHHYGTPLTFGQGTKVEIKR
notes: human IgG1 (hIgG1) from Fab hit B16083
For B3, the Kd in [6] was found to be 3.95 nM; in experiment [7] it was 2.76 nM; in [8], 1.12 nM.

B4: TY22775 (antibody, V domains shown)
VH: EVQLVESGGGLVQPGGSLRLSCAASGYSISSGYHWSWIRQAPGKGLEWLARIDWDDDKYYSTSLKSRLTISRDNSKNTLYLQLNSLRAEDTAVYYCARSYVYFDYWGQGTLVTVSS
VL: EVGHSDCDAFYPYCDSSGRSAGGGGTPLGLAGSGGSDIQLTQSPSSLSASVGDRVTITCRASQSVRGRFLAWYQQKPGKAPKLLIYDASNRATGIPSRFSGSGSGTDFTLTISSLQPEDFATYYCQQSSSWPPTFGQGTKVEIKR
As to B4, the masking efficiency in [9] was 168. Further, the EC50 in experiment [10] worked out at 37.3 nM.

B5: TY23286 (antibody, V domains shown)
VH: B4 VH
VL: DIQLTQSPSSLSASVGDRVTITCRASQSVRGRFLAWYQQKPGKAPKLLIYDASNRATGIPSRFSGSGSGTDFTLTISSLQPEDFATYYCQQSSSWPPTFGQGTKVEIKR
B5: the 50% effective concentration (EC50) in experiment [11] came out at 1500 nM.

B6: TY23289 (antibody, V domains shown)
VH: B4 VH
VL: B5 VL
As to B6, in experiment [11], the EC50 turned out to be 133 nM.

B7: TY23291 (antibody, V domains shown)
VH: B4 VH
VL: B5 VL
Regarding B7, the EC50 in experiment [11] was 3660 nM.

B8: TY23280 (antibody, V domains shown)
VH: B4 VH
VL: B5 VL
B8: the EC50 in experiment [11] was found to be 2950 nM.

B9: B15722 (Fab, V domains shown)
VH: EVQLVESGGGLVQPGGSLRLSCAASGFTFSDYGIHWVRQAPGKGLEWIGEIYHSGSTYYSPSLKSRVTISRDNSKNTLYLQLNSLRAEDTAVYYCARDVAPGSSGYYDGFDFWGQGTLVTVSS
VL: DIQLTQSPSSLSASVGDRVTITCRASQGIGSSLAWYQQKPGKAPKLLIYDASNRATGIPSRFSGSGSGTDFTLTISSLQPEDFATYYCQQYDQWPPWTFGQGTKVEIKR
notes: Fab from E. coli; also called Fab hit of TY21587
Consider B9, for which, in experiment [5], the dissociation constant (Kd) was determined as 61.2 nM, the koff was 0.00434 s⁻¹ and the kon came out at 70900 M⁻¹ s⁻¹.

B10: B15756 (Fab, V domains shown)
VH: EVQLVESGGGLVQPGGSLRLSCAASGFSLSTGGVAVSWIRQAPGKGLEWIGEIYHSGSTYYSPSLKSRVTISRDNSKNTLYLQLNSLRAEDTAVYYCARRIATATYFDYWGQGTLVTVSS
VL: DIQLTQSPSSLSASVGDRVTITCRASQTVFSRYLAWYQQKPGKAPKLLIYDASNRATGIPSRFSGSGSGTDFTLTISSLQPEDFATYYCQQSYYWPPWTFGQGTKVEIKR
notes: Fab from E. coli; also called Fab hit of TY21591
With B10, in [5], the Kd was found to be 55.5 nM, the koff turned out to be 0.00663 s⁻¹ and the kon is 120000 M⁻¹ s⁻¹.

B11: B15716 (Fab, V domains shown)
VH: EVQLVESGGGLVQPGGSLRLSCAASGYSITSGYYWAWIRQAPGKGLEWVSSISGSGSTTYYADSVKGRFTISRDNSKNTLYLQLNSLRAEDTAVYYCARDGFGYFDYWGQGTLVTVSS
VL: DIQLTQSPSSLSASVGDRVTITCSASSSVSYVYWYQQKPGKAPKLLIYDASSLESGVPSRFSGSGSGTDFTLTISSLQPEDFATYYCVQGLQTPWTFGQGTKVEIKR
notes: Fab from E. coli; also called Fab hit of TY21586
For the molecule B11, the Kd in experiment [5] stood at 12.1 nM.
